Assay results as given in publication PMC12546588 (Nature Communications, 2025).

What was measured:
[1] = target: human TRPC3 channel (hTRPC3), WT full length, tetramer in nanodiscs (human, UniProt Q13507); assay: cryo-EM structure
cryo-EM structure = target: the molecule itself; assay: cryo-EM structure

Row | Binder | stoichiometry N [1] | stoichiometry N (cryo-EM structure)
1 | Nanobody 1-94 (VHH) VHH: QVQLQESGGGSVQSGGSLRLSCAASGYTYSYSGYCMGWFRQAPGKEREGVATIDGAGNTKYADSVKGRFTISRDNAKKTLYLQMNSLKPEDTAMYYCAARVYSYSSDVDCRPSFTTRFPYSGQGTQVTV | 4 nanobody molecules per hTRPC3 tetramer | –
2 | human TRPC3 channel (hTRPC3), WT full length, tetramer in nanodiscs (natural protein, UniProt Q13507 86-921, looked up) MREKGRRQAVRGPAFMFNDRGTSLTAEEERFLDAAEYGNIPVVRKMLEESKTLNVNCVDYMGQNALQLAVGNEHLEVTELLLKKENLARIGDALLLAISKGYVRIVEAILNHPGFAASKRLTLSPCEQELQDDDFYAYDEDGTRFSPDITPIILAAHCQKYEVVHMLLMKGARIERPHDYFCKCGDCMEKQRHDSFSHSRSRINAYKGLASPAYLSLSSEDPVLTALELSNELAKLANIEKEFKNDYRKLSMQCKDFVVGVLDLCRDSEEVEAILNGDLESAEPLEVHRHKASLSRVKLAIKYEVKKFVAHPNCQQQLLTIWYENLSGLREQTIAIKCLVVLVVALGLPFLAIGYWIAPCSRLGKILRSPFMKFVAHAASFIIFLGLLVFNASDRFEGITTLPNITVTDYPKQIFRVKTTQFTWTEMLIMVWVLGMMWSECKELWLEGPREYILQLWNVLDFGMLSIFIAAFTARFLAFLQATKAQQYVDSYVQESDLSEVTLPPEIQYFTYARDKWLPSDPQIISEGLYAIAVVLSFSRIAYILPANESFGPLQISLGRTVKDIFKFMVLFIMVFFAFMIGMFILYSYYLGAKVNAAFTTVEESFKTLFWSIFGLSEVTSVVLKYDHKFIENIGYVLYGIYNVTMVVVLLNMLIAMINSSYQEIEDDSDVEWKFARSKLWLSYFDDGKTLPPPFSLVPSPKSFVYFIMRIVNFPKCRRRRLQKDIEMGMGNSKSRLNLFTQSNSRVFESHSFNSILNQPTRYQQIMKRLIKRYVLKAQVDKENDEVNEGELKEIKQDISSLRYELLEDKSQATEELAILIHKLSEKLNPSMLRCE | – | 4 subunits

More lines, main results first:

Row | stoichiometry N [1] | Binder | stoichiometry N (cryo-EM structure)
3 | 4 nanobody molecules per hTRPC3 tetramer | Nanobody 1-25 (VHH) VHH: QVQLQESGGGSVQSGGSLRLSCAASGDKNYYMGWFRQAPGKEREGVAAIKSDGETRYADSSVTGRFTISQDNAKKTLYLQMTSLKPEDTAMYYCAADRYIGTRWKYVRPEDYSYWGQGTQVTVSS | –
4 | 2 nanobody molecules per hTRPC3 tetramer | Nanobody 3-37 (VHH) VHH: QVQLQESGGGSVQSGGSLRLSCAASGYTYSRSCLGWFRQAPGKERERVATIDSDGSTSYADSVKGRFTISQDNAKNTLYLQMNSLKSEDTAMYYCASKYGSRCQNSLGYMYRGQGTQVTVSS | –
